± gives the uncertainty stated by the source.
B1: SH3 and PX domain-containing protein 2B, residues 155 to 209; numbered along this chain, A1X283 (parent)
chain: EQYVVVANYQKQESSEISLSVGQVVDIIEKNESGWWFVSTAEEQGWVPATCLEGQ

Variants of: B1
Assay: abundance fitness (aPCA) (normalised: wild type 0, dead -1); higher = more abundant; growth selection in yeast, the domain comes from the species named
Conditions: Homo sapiens
With EQYVVVANYQKQESSEISLSVGQVVDGIEKNESGWWFVSTAEEQGWVPATCLEGQ the abundance fitness was -0.351 ± 0.073.
EQYVVVANYQKQESSEISLSVGQVVDFIEKNESGWWFVSTAEEQGWVPATCLEGQ showed an abundance fitness of -0.145 ± 0.19.
EQYVVVANYQKQESSEISLSVGQVVDAIEKNESGWWFVSTAEEQGWVPATCLEGQ gave an abundance fitness of 0.037 ± 0.13.
In the case of EQYVVVANYQKQESSEISLSVGQVVDPIEKNESGWWFVSTAEEQGWVPATCLEGQ, the abundance fitness is reported as -0.008 ± 0.13.
Work on EQYVVVANYQKQESSEISLSVGQVVDTIEKNESGWWFVSTAEEQGWVPATCLEGQ yielded an abundance fitness of -0.183 ± 0.092.
Variant EQYVVVANYQKQESSEISLSVGQVVDMIEKNESGWWFVSTAEEQGWVPATCLEGQ has an abundance fitness of -0.185 ± 0.11.
Variant EQYVVVANYQKQESSEISLSVGQVVDLIEKNESGWWFVSTAEEQGWVPATCLEGQ has an abundance fitness of -0.099 ± 0.067.
EQYVVVANYQKQESSEISLSVGQVVDDIEKNESGWWFVSTAEEQGWVPATCLEGQ showed an abundance fitness of -1.05 ± 0.22.
With EQYVVVANYQKQESSEISLSVGQVVDKIEKNESGWWFVSTAEEQGWVPATCLEGQ the abundance fitness was -0.617 ± 0.21.
EQYVVVANYQKQESSEISLSVGQVVDQIEKNESGWWFVSTAEEQGWVPATCLEGQ showed an abundance fitness of -0.609 ± 0.19.
Work on EQYVVVANYQKQESSEISLSVGQVVDVIEKNESGWWFVSTAEEQGWVPATCLEGQ yielded an abundance fitness of 0.055 ± 0.071.
EQYVVVANYQKQESSEISLSVGQVVDEIEKNESGWWFVSTAEEQGWVPATCLEGQ gave an abundance fitness of -0.944 ± 0.16.
With EQYVVVANYQKQESSEISLSVGQVVDHIEKNESGWWFVSTAEEQGWVPATCLEGQ the abundance fitness was -0.908 ± 0.23.
In the case of EQYVVVANYQKQESSEISLSVGQVVDYIEKNESGWWFVSTAEEQGWVPATCLEGQ, the abundance fitness is reported as -0.149 ± 0.21.
For EQYVVVANYQKQESSEISLSVGQVVDWIEKNESGWWFVSTAEEQGWVPATCLEGQ, the abundance fitness was -0.477 ± 0.1.
Work on EQYVVVANYQKQESSEISLSVGQVVDCIEKNESGWWFVSTAEEQGWVPATCLEGQ yielded an abundance fitness of -0.001 ± 0.093.
EQYVVVANYQKQESSEISLSVGQVVDNIEKNESGWWFVSTAEEQGWVPATCLEGQ showed an abundance fitness of -0.899 ± 0.19.
For EQYVVVANYQKQESSEISLSVGQVVDSIEKNESGWWFVSTAEEQGWVPATCLEGQ, the abundance fitness was -0.404 ± 0.085.
For EQYVVVANYQKQESSEISLSVGQVVDRIEKNESGWWFVSTAEEQGWVPATCLEGQ, the abundance fitness was -0.277 ± 0.058.
Work on EQYVVVANYQKQESSEISLSVGQVVDIEEKNESGWWFVSTAEEQGWVPATCLEGQ yielded an abundance fitness of -0.475 ± 0.13.
EQYVVVANYQKQESSEISLSVGQVVDIAEKNESGWWFVSTAEEQGWVPATCLEGQ showed an abundance fitness of -0.319 ± 0.073.
With EQYVVVANYQKQESSEISLSVGQVVDIKEKNESGWWFVSTAEEQGWVPATCLEGQ the abundance fitness was -0.008 ± 0.14.
For EQYVVVANYQKQESSEISLSVGQVVDILEKNESGWWFVSTAEEQGWVPATCLEGQ, the abundance fitness was -0.041 ± 0.11.
For EQYVVVANYQKQESSEISLSVGQVVDIFEKNESGWWFVSTAEEQGWVPATCLEGQ, the abundance fitness was -0.214 ± 0.12.
EQYVVVANYQKQESSEISLSVGQVVDIHEKNESGWWFVSTAEEQGWVPATCLEGQ showed an abundance fitness of -0.052 ± 0.23.
EQYVVVANYQKQESSEISLSVGQVVDICEKNESGWWFVSTAEEQGWVPATCLEGQ showed an abundance fitness of -0.13 ± 0.2.
Work on EQYVVVANYQKQESSEISLSVGQVVDIGEKNESGWWFVSTAEEQGWVPATCLEGQ yielded an abundance fitness of -0.211 ± 0.059.
Work on EQYVVVANYQKQESSEISLSVGQVVDIDEKNESGWWFVSTAEEQGWVPATCLEGQ yielded an abundance fitness of -0.451 ± 0.1.
Work on EQYVVVANYQKQESSEISLSVGQVVLIIEKNESGWWFVSTAEEQGWVPATCLEGQ yielded an abundance fitness of -0.078 ± 0.093.
In the case of EQYVVVANYQKQESSEISLSVGQVVTIIEKNESGWWFVSTAEEQGWVPATCLEGQ, the abundance fitness is reported as -0.109 ± 0.12.
Work on EQYVVVANYQKQESSEISLSVGQVVKIIEKNESGWWFVSTAEEQGWVPATCLEGQ yielded an abundance fitness of 0.028 ± 0.13.
For EQYVVVANYQKQESSEISLSVGQVVIIIEKNESGWWFVSTAEEQGWVPATCLEGQ, the abundance fitness was -0.508 ± 0.22.
In the case of EQYVVVANYQKQESSEISLSVGQVVQIIEKNESGWWFVSTAEEQGWVPATCLEGQ, the abundance fitness is reported as -0.052 ± 0.22.
EQYVVVANYQKQESSEISLSVGQVVSIIEKNESGWWFVSTAEEQGWVPATCLEGQ gave an abundance fitness of -0.122 ± 0.096.
In the case of EQYVVVANYQKQESSEISLSVGQVVPIIEKNESGWWFVSTAEEQGWVPATCLEGQ, the abundance fitness is reported as -0.928 ± 0.27.
EQYVVVANYQKQESSEISLSVGQVVGIIEKNESGWWFVSTAEEQGWVPATCLEGQ gave an abundance fitness of -0.126 ± 0.067.
In the case of EQYVVVANYQKQESSEISLSVGQVVVIIEKNESGWWFVSTAEEQGWVPATCLEGQ, the abundance fitness is reported as -0.179 ± 0.074.
For EQYVVVANYQKQESSEISLSVGQVVMIIEKNESGWWFVSTAEEQGWVPATCLEGQ, the abundance fitness was -0.134 ± 0.24.
For EQYVVVANYQKQESSEISLSVGQVVCIIEKNESGWWFVSTAEEQGWVPATCLEGQ, the abundance fitness was -0.269 ± 0.15.
In the case of EQYVVVANYQKQESSEISLSVGQVVHIIEKNESGWWFVSTAEEQGWVPATCLEGQ, the abundance fitness is reported as -0.214 ± 0.29.
Work on EQYVVVANYQKQESSEISLSVGQVVRIIEKNESGWWFVSTAEEQGWVPATCLEGQ yielded an abundance fitness of -0.103 ± 0.068.
Work on EQYVVVANYQKQESSEISLSVGQVVFIIEKNESGWWFVSTAEEQGWVPATCLEGQ yielded an abundance fitness of -0.262 ± 0.2.
EQYVVVANYQKQESSEISLSVGQVVEIIEKNESGWWFVSTAEEQGWVPATCLEGQ showed an abundance fitness of -0.112 ± 0.11.
In the case of EQYVVVANYQKQESSEISLSVGQVVYIIEKNESGWWFVSTAEEQGWVPATCLEGQ, the abundance fitness is reported as -0.272 ± 0.18.
With EQYVVVANYQKQESSEISLSVGQVVNIIEKNESGWWFVSTAEEQGWVPATCLEGQ the abundance fitness was 0.146 ± 0.14.
In the case of EQYVVVANYQKQESSEISLSVGQVVAIIEKNESGWWFVSTAEEQGWVPATCLEGQ, the abundance fitness is reported as -0.054 ± 0.084.
EQYVVVANYQKQESSEISLSVGQVWDIIEKNESGWWFVSTAEEQGWVPATCLEGQ gave an abundance fitness of -0.983 ± 0.18.
For EQYVVVANYQKQESSEISLSVGQVTDIIEKNESGWWFVSTAEEQGWVPATCLEGQ, the abundance fitness was -0.513 ± 0.15.
